We go through 7 molecules from patent US20130011375A1 (published 2013).

B1: I4F8 (TCR, V domains shown)
Valpha: AQSVTQPDARVTVSEGASLQLRCKYSYFGTPYLFWYVQYPRQGLQLLLKYYPGDPVVQGVNGFEAEFSKSNSSFHLRKASVHWSDWAVYFCAVSNMGYKLTFGTGTSLLVDP
Vbeta: DPKIIQKPKYLVAVTGSEKILICEQYLGHNAMYWYRQSAKKPLEFMFSYSYQKLMDNQTASSRFQPQSSKKNHLDLQITALKPDDSATYFCASSQEMGGALEQYFGPGTRLTVL
B2: I4G7 alpha chain with I4G7 beta chain2 (TCR, V domains shown)
Valpha: AQSVTQPDARVTVSEGASLQLRCKYSYFGTPYLFWYVQYPRQGLQLLLKYYPGDPVVQGVNGFEAEFSKSNSSFHLRKASVHWSDWAVYFCAVSRDTNTGKLTFGDGTVLTVKP
Vbeta: EAAVTQSPRNKVTVTGGNVTLSCRQTNSHNYMYWYRQDTGHGLRLIHYSYGAGNLRIGDVPDGYKATRTTQEDFFLLLELASPSQTSLYFCASSDYRDSGNTLYFGEGSRLIVV
B3: I8H4 (TCR, V domains shown)
Valpha: AQKVTQTQTSISVVEKTTVTMDCVYETRDSSYFLFWYKQTASGEIVFLIRQDSYKKENATVGHYSLNFQKPKSSIGLIITATQIEDSAVYFCAMREITGNTGKLIFGLGTTLQVQP
Vbeta: EAAVTQSPRNKVTVTGGNVTLSCRQTNSHNYMYWYRQDTGHGLRLIHYSYGAGNLRIGDVPDGYKATRTTQEDFFLLLELASPSQTSLYFCASSDALGGEDAEQFFGPGTRLTVL
B4: I4G7 alpha chain with I4G7 beta chain1 (TCR, V domains shown)
Valpha: AQSVTQPDARVTVSEGASLQLRCKYSYFGTPYRIEFSGREFALLFWYVQYPRQGLQLLLKYYPGDPVVQGVNGFEAEFSKSNSSFHLRKASVHWSDWAVYFCAVSRDTNTGKLTFGDGTVLTVKP
Vbeta: EAAVTQSPRNKVAVTGGKVTLSCNQTNNHNNMGELNLAAANSPLYWYRQDTGHGLRLIHYSYVADSTEKGDIPDGYKASRPSQENFSLILELASLSQTAVYFCASSGGLGGHTLYFGAGTRLSVL
B5: I8A4 (TCR, V domains shown)
Valpha: LAKTTQPPSMEAYEGQEVNVSCSHTNIATSEYIYWYRQVPHQGPQFIIQGYKDYVVNEVASLFISADRKLSTLSLPWVSLRDAAVYYCIVTDMETGGYKVVFGSGTRLLVSP
Vbeta: EAAVTQSPRNKVAVTGGKVTLSCNQTNNHNNMYWYRQDTGHGLRLIHYSYGAGSTEKGDIPDGYKASRPSQENFSLILELATPSQTSVYFCASASTGASSYEQYFGPGTRLTVL
B6: TCR-69 (TCR, V domains shown)
Valpha: LAKTTQPPSMEAYEGQEVNVSCSHTNIATSEYIYWYRQVPHQGPQFIIQGYKDYVVNEVASLFISADRKLSTLSLPWVSLRDAAVYYCIVTDLGITGNTGKLIFGLGTTLQVQP
Vbeta: EAAVTQSPRNKVAVTGGKVTLSCNQTNNHNNMYWYRQDTGHGLRLIHYSYGAGSTEKGDIPDGYKASRPSQENFSLILELATPSQTSVYFCASGDEGYNSPLYFAAGTRLTVT
B7: TCR-19 (TCR, V domains shown)
Valpha: GEKVEQHQSTLSVREGDSAVINCTYTDTASSYFPWYKQEAGKSLHFVIDIRSNVDRKQSQRLTVLLDKKAKRFSLHITATQPEDSAIYFCAASLITGNTGKLIFGLGTTLQVQP
Vbeta: GGIITQTPKFLIGQEGQKLTLKCQQNFNHDTMYWYRQDSGKGLRLIYYSITENDLQKGDLSEGYDASREKKSSFSLTVTSAQKNEMAVFLCASSLTANTEVFFGKGTRLTVV

For one test, the target named is T1, HCV NS3 1073-1081, alanine analogue 1078-Ala (position 6) peptide on HLA-A*02:01 (human).
T1 peptide: CINGVAWTV
Description: cytokine release.
With B1, the binding result is on record as “recognises”.
As for B2, the binding result is “recognises”.
With B3, the binding result is “recognises”.
For B4, the binding result is “recognises”.

For a further test, the target named is T2, HCV NS3 1073-1081, alanine analogue 1080-Ala (position 8) peptide on HLA-A*02:01 (human).
T2 peptide: CINGVCWAV
Description: cytokine release.
B1: the binding result is on record as “recognises”.
Regarding B2, the binding result was “recognises”.
On to B3, for which the binding result is reported as “recognises”.
B4: the binding result is “recognises”.

The next test has as its target T3, HCV NS3 1073-1081, alanine analogue 1081-Ala (position 9) peptide on HLA-A*02:01 (human).
T3 peptide: CINGVCWTA
The test can be described thus: cytokine release.
In the case of B1, the binding result is reported as “recognises”.
Still for that read-out and setting: the value for B2 was “recognises”.
In the case of B3, the binding result is given as “recognises”.
On the same count and under the same terms, as for B4, the entry is “recognises”.

A further test has as its target T4, HCV NS3 1073 (genotype 2) peptide on HLA-A*02:01 (human).
T4 peptide: TISGVLWTV
The test can be described thus: cytokine release.
Turning to B5, the binding result was “no recognition”.
Same read-out and setting: as for B1, the entry is “no recognition”; as for B2, “no recognition”; as for B3, “no recognition”.
In the case of B4, the binding result is “no recognition”.

Another test has as its target T5, HCV NS3 1073 (genotype 3) peptide on HLA-A*02:01 (human).
T5 peptide: TIGGVMWTV
The test can be described thus: cytokine release.
For the molecule B5, the binding result is “no recognition”.
Still for that read-out and setting: as for B1, the entry is “no recognition”; as for B2, “no recognition”.
Turning to B3, the binding result is “no recognition”.
On the same count and under the same terms, as for B4, the entry is “no recognition”.

For a further test, the target named is T6, HCV NS3 1073 (genotype 4) peptide on HLA-A*02:01 (human).
T6 peptide: AVNGVMWTV
Description: cytokine release.
Turning to B5, the binding result was “no recognition”.
Same read-out and setting: the value for B1 was “no recognition”.
For B2, the binding result was “no recognition”.
On to B3, for which the binding result is on record as “no recognition”.
Regarding B4, the binding result is listed as “no recognition”.

The target in a further test is T7, HCV NS3 1073 (genotype 5) peptide on HLA-A*02:01 (human).
T7 peptide: CINGVMWTV
Description: cytokine release.
Take B5: the binding result is “no recognition”.
Same read-out and setting: as for B1, the entry is “no recognition”.
Take B2: the binding result was “no recognition”.
On the same count and under the same terms, the value for B3 was “no recognition”.
On the same count and under the same terms, the value for B4 was “no recognition”.

In another test the target is T8, HCV NS3 1073 (genotype 6) peptide on HLA-A*02:01 (human).
T8 peptide: AINGVMWTV
Description: cytokine release.
In the case of B5, the binding result is on record as “no recognition”.
On the same count and under the same terms, as for B1, the entry is “no recognition”.
Still for that read-out and setting: as for B2, the entry is “no recognition”; as for B3, “no recognition”.
On the same count and under the same terms, the value for B4 was “no recognition”.

A further test addresses T9, Flu neuraminidase (Flu-NA231) peptide on HLA-A*02:01 (human).
T9 peptide: CVNGSCFTV
The test can be described thus: cytokine release.
As to B5, the binding result is “no recognition”.
On the same count and under the same terms, the value for B1 was “no recognition”; that for B2 was “no recognition”.
With B3, the binding result was “no recognition”.
B4: the binding result is listed as “no recognition”.

The target in the next test is T10, HCV NS3 (genotype 1a) peptide on HLA-A*02:01 (human/mouse chimera).
T10 peptide: CINGVCWTV
Description: cytokine release.
For B3, the binding result was “recognises”.

A further test concerns the target T11, HCV NS5 (NS5 2221) peptide on HLA-A*02:01 (human).
T11 peptide: SPDADLIEANL
The test can be described thus: cytokine release.
For the molecule B5, the binding result is on record as “no recognition”.
On the same count and under the same terms, as for B1, the entry is “no recognition”; as for B2, “no recognition”.
On the same count and under the same terms, as for B3, the entry is “no recognition”; as for B4, “no recognition”.

For a further test, the target named is T12, HCV NS5 peptide on HLA-A*02:01 (human).
T12 peptide: VLTDFKTWL
Description: cytokine release.
As to B5, the binding result was “no recognition”.
For B6, the binding result is listed as “recognises”.
In the case of B1, the binding result is on record as “no recognition”.
On the same count and under the same terms, as for B7, the entry is “recognises”.
The same measure, in the same setting: as for B2, the entry is “no recognition”.
In the case of B3, the binding result is reported as “no recognition”.
Consider B4, for which the binding result is “no recognition”.

Another test addresses T13, HCMV pp65 (pp65 495) peptide on HLA-A*02:01 (human).
T13 peptide: NLVPMVATV
Description: cytokine release.
With B5, the binding result is “no recognition”.
With B1, the binding result is recorded as “no recognition”.
In the case of B2, the binding result is given as “no recognition”.
Same read-out and setting: as for B3, the entry is “no recognition”; as for B4, “no recognition”.

Another test addresses T14, HCV NS3 (genotype 1b) peptide on HLA-A*02:01 (human).
T14 peptide: CVNGVCWTV
Description: cytokine release.
On to B5, for which the binding result was “recognises”.
Consider B1, for which the binding result is given as “recognises”.
Consider B2, for which the binding result is “recognises”.
On the same count and under the same terms, the value for B3 was “recognises”.
As to B4, the binding result was “recognises”.

The target in another test is T15, HCV NS3 peptide on HLA-A*02:01 (human).
T15 peptide: KLVALGINAV
The test can be described thus: cytokine release.
For the molecule B5, the binding result is given as “no recognition”.
Still for that read-out and setting: the value for B1 was “no recognition”; that for B2 was “no recognition”.
Take B3: the binding result was “no recognition”.
Turning to B4, the binding result is given as “no recognition”.

For another test, the target named is T16, HCV NS3 1073-1081, alanine analogue 1073-Ala (position 1) peptide on HLA-A*02:01 (human).
T16 peptide: AINGVCWTV
Description: cytokine release.
B5: the binding result is on record as “recognises”.
Turning to B1, the binding result is given as “recognises”.
Same read-out and setting: the value for B2 was “recognises”.
In the case of B3, the binding result is “recognises”.
For the molecule B4, the binding result is on record as “recognises”.

In a further test the target is T17, HCV NS3 1073-1081, alanine analogue 1074-Ala (position 2) peptide on HLA-A*02:01 (human).
T17 peptide: CANGVCWTV
The test can be described thus: cytokine release.
Turning to B1, the binding result is listed as “recognises”.
The same measure, in the same setting: as for B3, the entry is “recognises”.

The next test addresses T18, HCV NS3 (genotype 1a) peptide on HLA-A*02:01 (human).
T18 peptide: CINGVCWTV
The test can be described thus: multimer staining.
In the case of B3, the binding result is recorded as “recognises”.

For the next test, the target named is T18, HCV NS3 (genotype 1a) peptide on …. Description: T cell clone or line.
On to B5, for which the EC50 of peptide was no more than 0.4 µg/mL.
Regarding B1, the “peptide concentration at which reactive” value is less than 100 ng/mL.
For the molecule B2, the “peptide concentration at which reactive” value is less than 100 ng/mL.
The same measure, in the same setting: the value for B4 was less than 100 ng/mL.

In a further test the target is T17, HCV NS3 1073-1081, alanine analogue …. Description: T cell clone or line.
B2: the EC50 of peptide came to 0.08 µg/mL.
For B4, the EC50 of peptide is 0.08 µg/mL.
